From patent publication US20240209100A1 (DIAGONAL THERAPEUTICS, published 2024)

T1: IL-18 receptor (IL-18Rα/IL-18Rβ) overexpressed on HEK-Blue IL-18 cells (Homo sapiens (Human), UniProt Q13478 19-541; O95256 20-599)
T1 sequence 1: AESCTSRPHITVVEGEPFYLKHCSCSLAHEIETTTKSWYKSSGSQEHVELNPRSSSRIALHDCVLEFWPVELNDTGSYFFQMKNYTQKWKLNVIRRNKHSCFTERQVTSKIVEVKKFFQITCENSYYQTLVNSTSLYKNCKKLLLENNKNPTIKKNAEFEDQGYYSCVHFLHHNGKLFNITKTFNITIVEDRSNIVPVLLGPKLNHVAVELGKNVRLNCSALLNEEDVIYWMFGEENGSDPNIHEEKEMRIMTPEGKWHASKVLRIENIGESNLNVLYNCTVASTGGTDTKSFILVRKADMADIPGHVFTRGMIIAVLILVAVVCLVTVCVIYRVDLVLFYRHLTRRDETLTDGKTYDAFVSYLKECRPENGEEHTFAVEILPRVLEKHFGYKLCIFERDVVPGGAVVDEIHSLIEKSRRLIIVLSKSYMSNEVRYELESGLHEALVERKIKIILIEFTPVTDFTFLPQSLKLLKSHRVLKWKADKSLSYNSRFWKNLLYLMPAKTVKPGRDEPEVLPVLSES
T1 sequence 2: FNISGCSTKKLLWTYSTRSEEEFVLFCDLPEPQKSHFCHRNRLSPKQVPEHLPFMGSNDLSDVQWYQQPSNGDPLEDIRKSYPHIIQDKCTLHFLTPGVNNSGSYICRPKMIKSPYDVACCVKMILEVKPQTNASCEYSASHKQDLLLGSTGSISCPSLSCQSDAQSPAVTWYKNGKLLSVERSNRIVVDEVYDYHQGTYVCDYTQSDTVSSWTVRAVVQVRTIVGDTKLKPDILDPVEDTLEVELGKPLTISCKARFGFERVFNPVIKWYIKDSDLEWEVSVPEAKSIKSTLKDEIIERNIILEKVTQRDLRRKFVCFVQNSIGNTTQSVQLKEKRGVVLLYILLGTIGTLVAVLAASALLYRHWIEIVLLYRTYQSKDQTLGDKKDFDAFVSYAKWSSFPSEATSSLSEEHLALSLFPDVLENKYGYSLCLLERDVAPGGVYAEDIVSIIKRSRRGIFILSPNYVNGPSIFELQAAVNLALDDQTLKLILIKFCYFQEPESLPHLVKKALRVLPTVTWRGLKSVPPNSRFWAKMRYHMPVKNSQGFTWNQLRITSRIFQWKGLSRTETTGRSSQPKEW

B1: DGL091 (bispecific antibody, V domains shown)
V domain 1: QVQLVESGGGLVQAGGSLRLSCAASGRTFSKHAMGWFRQAPGKEREFVAAIDWSGGSTYYADSVKGRFTISRDNAKNTVYLQMDSLKPEDTAVYYCAADSYTDYAQLWLPELESEYDYWGQGTQVTVSS
V domain 2: QVQLVESGGGLVQAGDSLRLSCVASERTFSSYTMGWFRQAPGKEREFTAALSWWNGGISTAYADSVKGRFTISRDNAKNTVYLQMNSLKTEDTALYYCAAARDRMPRADEYDYWGQGTQVTVSS
B2: DGL076 (bispecific antibody, V domains shown)
V domain 1: QVQLQESGGGLVQPGGSLRLSCAASGNIFRATGMGWYRQAPGKWRELVARISSTGSPNYVDFVKGRFTISRDNAKNTLYLQMNSLKPDDTAVYYCNTVGTTLFAWGQGTQVTVSS
V domain 2: EVQLVESGGGVAQAGGSLRLSCAASITSFSLNTMGYYRQLPGKQRELVAVESSSGITNYADSVKGRFTISRDGAKNTVFLQMNSLTPEDTAVYYCGGKLFGRDFWGQGTQVTVSS
B3: DGL078 (bispecific antibody, V domains shown)
V domain 1: QVQLQESGGGLVQAGGSLRLSCIVSGSIVRIDFMGWYRQAPGKKRDMVATITTGGSTNYADSVKDRFTISRDNAKNTLSLQVNDLKPEDTAVYYCNSVVHTTSRPPVLYWGQGTQVTVSS
V domain 2: B2 V domain 2
B4: DGL079 (bispecific antibody, V domains shown)
V domain 1: EVQLVESGGGLVQAGGSLRLSCAASGRTFSNYDMGWFRQAPEKEREFVAVISGPGGIAFYGDSVKGRFTISRDNTKNTVYLQMNRLKSEDTAVYYCAAAPRGSYYRRTNSYDYWGQGTQVTVSS
V domain 2: B2 V domain 2
B5: DGL060 (bispecific antibody, V domains shown)
V domain 1: EVQLVESGGGLVQPGGSLRLSCAASGSIFSINAMGWYRQAPGKQREVVATSTGGGMTNYADSVKGRFTISRDNAKNTVYLQMNSLKPEDTAVYYCNADKDPFFPGDYWGQGTQVTVSS
V domain 2: QVQLQESGGGLVQPGGSLGLSCAASGIKISVNSMAWYRQAPGERREMVAVISSGGSAVYADSVKGRFTISRDNAKNMVYLQMNSLKPEDTAVYYCHPGSAAYRDYWGQGTQVTVSS
B6: DGL063 (bispecific antibody, V domains shown)
V domain 1: QLQLVESGGGLVQPGGSLRLSCAASGKIFSINIMDWYRQAPGKERELVARISPGDIITYANDVKGRFTISRNNAKNTVYLQMNSLKPEDTAVYYCRWRQGAGDYWGRGTQVTVSS
V domain 2: B5 V domain 2
B7: DGL068 (bispecific antibody, V domains shown)
V domain 1: B5 V domain 1
V domain 2: QVQLVESGGGLVQAGGSLRLSCVASGTFFQIHVMGWYRQAPGKQRELVAFIINNGGTRYADSVKGRFTISRDYAKNTVYLQMNSLKPEDTAVYYCNTEGTYRGRYSTDNWGQGTQVTVSS
B8: DGL061 (bispecific antibody, V domains shown)
V domain 1: B2 V domain 1
V domain 2: B5 V domain 2
B9: DGL075 (bispecific antibody, V domains shown)
V domain 1: B5 V domain 1
V domain 2: B2 V domain 2
B10: DGL082 (bispecific antibody, V domains shown)
V domain 1: B5 V domain 1
V domain 2: QVQLVESGGGLVQAGGSLRLSCAASGRSVSENDVRWYRQAPRKQREWVAAITSSGITGYADSVRIRFTISRDLAKNTVYLQMNSLKPEDTAVYYCYMTDQYWGQGTQVTVSS
B11: DGL062 (bispecific antibody, V domains shown)
V domain 1: QVQLQESGGGLVQPGGSLRLSCAASGSIFSTKGLGWYRQAPGEQRELVAGISSAGWIFYTQSVKGRFTMSRDNAKNTVYLQMNSLKPEDTAVYYCNSAQSGVPLRSWGQGTQVTVAS
V domain 2: B5 V domain 2
B12: DGL090 (bispecific antibody, V domains shown)
V domain 1: EVQLVESGGGLVQPGGSLRLSCAASGFFLDDYVLGWFRQAPGKPREGVSCISSRGRYLNYAETVKGRFTISRSNAKNTVYLQMNNLEPEDTAVYYCAAVRRVSEVCKLAEDDFASWGQGTQVTVSS
V domain 2: QVQLQESGGGLVQAGGSLKLSCQASGLTFKRNTMGWFRQAPGKEREFVAHFLWTGGETDYADAVKGRFTISRDNAKNTVYLQMNSLKPEDTAVYFCAANYAGYRIDGYQYWGQGTQVTVSS
B13: DGL052 (bispecific antibody, V domains shown)
V domain 1: QVQLQESGGGLVQPGGSLRLSCAASGFIFSNWYMRWVRQAPGEGLEWVSSINSGGDDTDYADSVKGRFTISRDNAKGTLYLQMHSLKPEDTALYYCERGADRVRGQGTQVTVSS
V domain 2: QVQLVESGGDLVLPGGSLKLSCEASGSISSRNSMAWYRRAPGKQRELVAAISSISSGGRTDYADFVKGRFTIFRDTAKNMVYLQMNNLKPEDTAVYDCDDPIRVASLAYDDWGQGTQVTVSS
B14: DGL323 (bispecific antibody, V domains shown)
V domain 1: B13 V domain 1
V domain 2: QLQLVESGGGLVQAGGSLRLSCAASRSITFSHNVMGWYRQAPGKQRELVASIGSGGSTNYVDSVKGRATISRDNAKKTVYLQMNSLKPEDTAVYYCGVVVGVYRGSLGQGTQVTVSS
B15: DGL320 (bispecific antibody, V domains shown)
V domain 1: B11 V domain 1
V domain 2: B14 V domain 2
B16: DGL077 (bispecific antibody, V domains shown)
V domain 1: B11 V domain 1
V domain 2: B2 V domain 2
B17: DGL321 (bispecific antibody, V domains shown)
V domain 1: QVQLQESGGGLVQPGGSARLSCVASGIIFNDYHMGWYRQAPGKQRDLVAGITAGGSTTYADSVKGRFTISRDNAKHTVYLQMNNLSPEDTAVYYCNTFYNAILDWGKGTLVTVSS
V domain 2: B14 V domain 2
B18: DGL322 (bispecific antibody, V domains shown)
V domain 1: QVQLVESGGGLVQAGGSLRLSCAASGRTFSSYTMGWFRQAPGKEREFVAAISWSAGRTYYADSVKGRFTISRDNAKNTVYLQMNSLKPEDTAVYFCAAEEAPDWAPIDCSGYGCLSLYDYWGQGTQVTVSS
V domain 2: B14 V domain 2

What was measured:
[1] = target: T1, IL-18 receptor (IL-18Rα/IL-18Rβ) …; assay: cell-based or functional assay
[2] = target: T1, IL-18 receptor (IL-18Rα/IL-18Rβ) …; assay: cell-based or functional assay; remark: listed apart in the source

Binder	HEK-Blue IL-18: Abs405 (Emax) [1] [Abs]	HEK-Blue IL-18: EC50 [1] [nM]	HEK-Blue IL-18: Abs 405 [2] [Abs]	HEK-Blue IL-18: Fold over Background [2] [fold]
B1	0.35	0.032		
B2	0.49	0.0066		
B3	0.65	0.024		
B4	0.32	0.017		
B5	0.6	0.028		
B6	0.6	0.014		
B7	0.36	0.018		
B8	0.47	0.0063		
B9	0.81	0.028		
B10	0.47	0.012		
B11	0.88	0.0034		
B12	0.26	0.033		
B13	1.03	0.0041		
B14			0.42	1.8
B15			2.36	10.3
B16	0.6	0.0054		
B17			0.38	1.7
B18			0.74	3.2
